What was measured:
[1] = biological target: IL-TIF protein (human) (human) (UniProt Q9GZX6); assay: cell-based or functional assay
[2] = biological target: zcytor11 and CRF2-4 receptors co-expressed on transfected BaF3 or BHK cells (human) (UniProt Q08334); assay: cell-based or functional assay
zcytor11 and CRF2-4 receptors co-expressed on transfected BaF3 or BHK cells (human), sequence (chain, as listed by the source limits assumed, chain 1 of 2): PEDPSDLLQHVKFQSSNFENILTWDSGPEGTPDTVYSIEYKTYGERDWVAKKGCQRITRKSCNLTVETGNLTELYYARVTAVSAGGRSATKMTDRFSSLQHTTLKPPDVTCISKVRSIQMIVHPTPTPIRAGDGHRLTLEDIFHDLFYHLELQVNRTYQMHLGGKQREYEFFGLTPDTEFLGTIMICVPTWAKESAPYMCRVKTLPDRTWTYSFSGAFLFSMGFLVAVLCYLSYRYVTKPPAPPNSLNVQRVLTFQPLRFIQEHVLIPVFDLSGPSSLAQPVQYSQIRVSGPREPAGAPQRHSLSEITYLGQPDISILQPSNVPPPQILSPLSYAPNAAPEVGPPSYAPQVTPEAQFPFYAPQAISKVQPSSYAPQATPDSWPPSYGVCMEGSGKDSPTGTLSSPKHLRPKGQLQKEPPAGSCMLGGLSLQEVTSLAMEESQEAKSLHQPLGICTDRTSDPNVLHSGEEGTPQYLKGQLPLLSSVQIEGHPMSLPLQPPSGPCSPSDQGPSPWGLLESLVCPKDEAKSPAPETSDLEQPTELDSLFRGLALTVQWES
zcytor11 and CRF2-4 receptors co-expressed on transfected BaF3 or BHK cells (human), sequence (Q08334 20-325 limits assumed, chain 2 of 2): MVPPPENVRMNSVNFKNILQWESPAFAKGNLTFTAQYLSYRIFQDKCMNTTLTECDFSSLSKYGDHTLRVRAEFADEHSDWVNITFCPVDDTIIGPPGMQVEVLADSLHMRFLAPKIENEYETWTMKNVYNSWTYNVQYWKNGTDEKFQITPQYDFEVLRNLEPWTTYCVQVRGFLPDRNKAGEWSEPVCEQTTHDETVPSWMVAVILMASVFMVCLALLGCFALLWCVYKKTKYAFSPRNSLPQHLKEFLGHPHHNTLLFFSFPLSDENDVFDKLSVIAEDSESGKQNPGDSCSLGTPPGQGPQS

CRF2-4/zcytor11-Fc soluble receptor heterodimer (Fc fusion), sequence (chain): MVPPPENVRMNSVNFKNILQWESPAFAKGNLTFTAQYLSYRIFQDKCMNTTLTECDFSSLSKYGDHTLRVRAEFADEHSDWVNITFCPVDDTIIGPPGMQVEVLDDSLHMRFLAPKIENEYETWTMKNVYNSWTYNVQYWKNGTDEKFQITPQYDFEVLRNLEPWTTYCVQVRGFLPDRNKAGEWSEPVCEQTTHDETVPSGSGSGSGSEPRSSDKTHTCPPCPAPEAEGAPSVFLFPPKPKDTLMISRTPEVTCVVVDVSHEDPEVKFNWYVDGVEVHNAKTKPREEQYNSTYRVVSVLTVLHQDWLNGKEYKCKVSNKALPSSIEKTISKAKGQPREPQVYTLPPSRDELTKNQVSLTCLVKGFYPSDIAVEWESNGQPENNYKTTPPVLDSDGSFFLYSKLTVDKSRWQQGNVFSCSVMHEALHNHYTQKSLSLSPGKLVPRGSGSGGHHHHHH
CRF2-4/zcytor11-Fc soluble receptor heterodimer (Fc fusion), sequence (chain): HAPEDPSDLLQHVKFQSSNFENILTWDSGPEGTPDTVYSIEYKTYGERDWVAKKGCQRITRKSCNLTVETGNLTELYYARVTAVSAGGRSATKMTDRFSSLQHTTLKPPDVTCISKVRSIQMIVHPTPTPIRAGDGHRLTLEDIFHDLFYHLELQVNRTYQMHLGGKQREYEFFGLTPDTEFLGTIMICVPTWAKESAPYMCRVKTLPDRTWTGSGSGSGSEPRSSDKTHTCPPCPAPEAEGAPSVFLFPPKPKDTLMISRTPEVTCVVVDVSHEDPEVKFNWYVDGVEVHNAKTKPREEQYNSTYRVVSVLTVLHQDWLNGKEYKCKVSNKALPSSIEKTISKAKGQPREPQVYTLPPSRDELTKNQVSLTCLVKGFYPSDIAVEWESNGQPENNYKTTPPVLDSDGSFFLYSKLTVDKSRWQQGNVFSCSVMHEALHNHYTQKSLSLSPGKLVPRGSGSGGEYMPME
IL-TIF protein (human) (human), sequence (Q9GZX6 34-179 limits assumed): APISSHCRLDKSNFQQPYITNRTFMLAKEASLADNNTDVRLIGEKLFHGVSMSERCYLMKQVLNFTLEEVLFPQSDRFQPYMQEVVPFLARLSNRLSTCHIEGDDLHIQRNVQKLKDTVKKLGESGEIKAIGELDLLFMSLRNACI

Substance	inhibition of IL-TIF-induced proliferation (Alamar Blue), concentration at which inhibition was barely detectable [1] [ng/mL]	inhibition of IL-TIF-induced proliferation (Alamar Blue), concentration giving complete inhibition [1] [ng/mL]	inhibition of IL-TIF-induced proliferation (Alamar Blue), concentration giving partial inhibition [1] [ng/mL]	Alamar Blue proliferation of BaF3/CRF2-4/zcytor11 cells, fold over background [2] [fold]
CRF2-4/zcytor11-Fc soluble receptor heterodimer (Fc fusion)	1.6	25 to 200	3.1 to 12.5	
IL-TIF protein (human) (from UniProt Q9GZX6 34-179) (ligand)				30
